# In article PMC5053900 (The FEBS journal, 2016):
# Where two headings read alike, the source gives them in different places.
# B1: UbaA, E1-like SAMP-activating enzyme of Haloferax volcanii, purified wild type (enzyme, UniProt D4GSF3 1-270, looked up)
# chain: MTLSLDATQLDRYSRHIIMDEVGPEGQGRLLSSRVVVVGAGGLGAPAIQYLAAVGVGELVVVDDDVVERSNLQRQVVHCDDDVGTPKAESAAAFVRGLNPDVSVEPVEARVDKSNVHEVVAGSDVVVDASDNFPTRYLLNDVCRFEGIPLVHGAIYKFEGQATTLVPDGPCYRCLFPEAPEPGTVPDCATTGVLGVLPGTVGCIQATEAMKLLLDEGEALDGRLLFYDAMDMTFETVPYRTNPDCPVCGEGGVDSIEDIDYVESCAISLD
# What was measured:
# [1] = biological target: B1; assay: ITC
# [2] = biological target: B1; assay: ITC; remark: listed apart in the source
# [3] = biological target: B1; assay: ITC; remark: listed apart in the source
# [4] = biological target: B1; assay: ITC; remark: listed apart in the source
# SEC = biological target: the molecule itself; assay: SEC
Ka [2],Kd [2],dH [2],stoichiometry N [2],Binder,stoichiometry N (SEC),further results
850000 M⁻¹,1.2 µM,2.92 kcal/mol,0.98,"SAMP1, small ubiquitin-like archaeal modifier protein 1, purified (natural protein, Haloferax volcanii, UniProt D4GUF6 1-87, looked up) MEWKLFADLAEVAGSRTVRVDVDGDATVGDALDALVGAHPALESRVFGDDGELYDHINVLRNGEAAALGEATAAGDELALFPPVSGG",–,Ka [1]: 250000 M⁻¹; Kd [1]: 4.1 µM; dH [1]: 3.82 kcal/mol; stoichiometry N [1]: 1.02; Ka [3]: 230000 M⁻¹; Kd [3]: 4.4 µM; dH [3]: 4.95 kcal/mol; stoichiometry N [3]: 0.95; Ka [4]: 590000 M⁻¹; Kd [4]: 1.7 µM; dH [4]: 8.65 kcal/mol; stoichiometry N [4]: 0.95
230000 M⁻¹,4.3 µM,-16.5 kcal/mol,0.99,"SAMP2, small ubiquitin-like archaeal modifier protein 2, purified (natural protein, Haloferax volcanii, UniProt D4GZE7 1-66, looked up) MNVTVEVVGEETSEVAVDDDGTYADLVRAVDLSPHEVTVLVDGRPVPEDQSVEVDRVKVLRLIKGG",–,–
–,–,–,–,B1,2,–
–,–,–,–,"UbaA C188A, purified (enzyme, Haloferax volcanii, UniProt D4GSF3 1-270, looked up) MTLSLDATQLDRYSRHIIMDEVGPEGQGRLLSSRVVVVGAGGLGAPAIQYLAAVGVGELVVVDDDVVERSNLQRQVVHCDDDVGTPKAESAAAFVRGLNPDVSVEPVEARVDKSNVHEVVAGSDVVVDASDNFPTRYLLNDVCRFEGIPLVHGAIYKFEGQATTLVPDGPCYRCLFPEAPEPGTVPDAATTGVLGVLPGTVGCIQATEAMKLLLDEGEALDGRLLFYDAMDMTFETVPYRTNPDCPVCGEGGVDSIEDIDYVESCAISLD",2,–
–,–,–,–,"UbaA D131N, purified (enzyme, Haloferax volcanii, UniProt D4GSF3 1-270, looked up) MTLSLDATQLDRYSRHIIMDEVGPEGQGRLLSSRVVVVGAGGLGAPAIQYLAAVGVGELVVVDDDVVERSNLQRQVVHCDDDVGTPKAESAAAFVRGLNPDVSVEPVEARVDKSNVHEVVAGSDVVVDASNNFPTRYLLNDVCRFEGIPLVHGAIYKFEGQATTLVPDGPCYRCLFPEAPEPGTVPDCATTGVLGVLPGTVGCIQATEAMKLLLDEGEALDGRLLFYDAMDMTFETVPYRTNPDCPVCGEGGVDSIEDIDYVESCAISLD",2,–
–,–,–,–,"UbaA K87R, purified (enzyme, Haloferax volcanii, UniProt D4GSF3 1-270, looked up) MTLSLDATQLDRYSRHIIMDEVGPEGQGRLLSSRVVVVGAGGLGAPAIQYLAAVGVGELVVVDDDVVERSNLQRQVVHCDDDVGTPRAESAAAFVRGLNPDVSVEPVEARVDKSNVHEVVAGSDVVVDASDNFPTRYLLNDVCRFEGIPLVHGAIYKFEGQATTLVPDGPCYRCLFPEAPEPGTVPDCATTGVLGVLPGTVGCIQATEAMKLLLDEGEALDGRLLFYDAMDMTFETVPYRTNPDCPVCGEGGVDSIEDIDYVESCAISLD",2,–
